Results taken from publication PMC12207370, “Macrocyclic Peptide Probes for Immunomodulatory Protein CD59: Potent Modulators of Bacterial Toxin Activity and Antibody‐Dependent Cytotoxicity” (Angewandte Chemie (International Ed. in English), 2025).

Target: T1, biotinylated CD59 (Homo sapiens, UniProt P13987)
T1 construct: Recombinant soluble human CD59 with an additional C-terminal cysteine residue
T1 sequence (P13987 26-102 limits assumed): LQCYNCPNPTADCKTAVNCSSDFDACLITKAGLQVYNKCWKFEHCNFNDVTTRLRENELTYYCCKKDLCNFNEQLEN
Experiment: mRNA-display cyclic peptide screen against CD59-biotin, NGS abundance after 6th selection round
Conditions: for Percentage Seq I: counts normalised by total counts of sample Seq I; for Percentage Seq I / Percentage Seq II: percentage of the pool; for Percentage Seq I / Percentage Seq II / Percentage Average / Percentage of the pool, averaged across the two sequencing samples / Percentage of the pool, Seq I / Percentage of the pool, Seq II: sheet R6; for Percentage Seq II: counts normalised by total counts of sample Seq II; for Percentage Average: percentage of the pool averaged across the two sequencing samples; for Counts Seq I / Counts Seq II: raw NGS counts of peptide sequence; for Counts Seq I: sequencing sample Seq I; for Counts Seq I / Counts Seq II / Counts (raw counts for peptide sequence), Seq I / Counts (raw counts for peptide sequence), Seq II: sheet R6 (6th selection round); for Counts Seq II: sequencing sample Seq II; for Counts (raw counts for peptide sequence), Seq I: NGS sample Seq I; for Counts (raw counts for peptide sequence), Seq II: NGS sample Seq II; for Percentage of the pool, averaged across the two sequencing samples: average of Seq I and Seq II; for Percentage of the pool, Seq I: counts normalised by total counts of NGS sample Seq I; for Percentage of the pool, Seq II: counts normalised by total counts of NGS sample Seq II
Source text: To discover novel non‐protein CD59 ligands, we screened a library of 10^12 cyclic peptides against CD59 using mRNA‐display (Figure 2a).^[ [23], [24], [25], [26], [27], [28], [29] ^] Briefly, an mRNA library was designed in which the start codon was reprogrammed from Met to N‐chloroacetyl‐D‐Tyr (ClAc‐D‐Tyr), followed by 10–12 randomly encoded natural amino acids, a Cys residue, a (GlySer)3 linker, and a stop codon. […] The total library diversity was 1.51 × 10^13 molecules, comprising 5.02 × 10^12 molecules of each macrocycle size, covering a subset of the maximum theoretical diversity of this library design. Following in vitro translation, ClAc‐D‐Tyr spontaneously reacts with either the C‐terminal Cys or a Cys in the random region, yielding macrocyclic thioether peptides. Hits from the library were identified through iterative enrichment and amplification against biotinylated CD59, then immobilized on streptavidin beads. Fifteen hit sequences (CP‐01 to CP‐15), enriched with abundance >1% relative to the total pool of recovered binders after the 6th round of selection, were synthesized by solid phase peptide synthesis (SPPS), without the (Gly‐Ser)3 linker.
Figure 2 Discovery of macrocyclic peptide ligands with nanomolar CD59 affinity using mRNA display. a) The selection process. PCR = polymerase chain reaction, SPPS = solid phase peptide synthesis. b) Table showing details of the peptides with nanomolar affinity for CD59 as well as the binding affinity of the lead inhibitor of CD59, rILYd4. K D values are presented as the average of three technical replicates ± SEM. Structures of all peptides and SPR sensograms are presented in Figures S1 and S2. *indicates the presented sequences are the variable regions of these cyclic peptides; each is flanked by an N‐terminal Ac‐D‐Tyr cyclized to a C‐terminal Cys. R6 abundance (%) is defined as (the given number of NGS reads for a given sequence/the total number of reads of unique sequences observed in NGS)*100 following the 6th selection round. c) Representative sensogram of the interaction between CP‐06 with immobilized CD59 by SPR analysis. Inset showing the equilibrium binding curve of CP‐06 to CD‐59. Below in the box are the association and dissociation rate constants of CP‐06. Concentrations are plotted in descending order from 800‐3.1 nM in line with their position on the legend. […] (nM)'; the box with Kon/Koff has no label of its own / ILYd4: the label may be cut off at the left edge (possibly 'rILYd4') / CP-02, KD: 15.3 ± 0.2, small print, 3 or 8 uncertain / CP-03, KD: 23.4 ± 0.7, small print / CP-06, KD: 11.3 ± 0.0, small print, 3 or 8 uncertain / CP-13, KD: 10.8 ± 0.7, small print, 8 or 6 uncertain / ILYd4, KD: 48.3 ± 1.1, small print, 8 and 3 uncertain
The mRNA-display cyclic peptide screen was performed against CD59-biotin by T.E.M: DNA templates for transcription were generated by PCR in a similar manner to that previously described.^2 RNA oligonucleotides were transcribed from the DNA templates using T7 RNA polymerase and purified by phenol/chloroform extraction followed by ethanol precipitation. Oligonucleotide concentrations were determined spectroscopically by absorbance at 260 nm. In the first selection round a 1:1:1 molar ratio of NNK10/NNK11/NNK12 was used. The procedure for selection rounds 2-6 is described below; round 1 was conducted at twice the scale.
RNA encoding for the peptide library ligated to a puromycin-modified oligonucleotide was […] (final [RNA] = 2.5 µM) using a customised PURE express kit (lacking release factor 1 and methionine, supplemented with […] initiator tRNA acylated with N-chloroacetyl-d-tyrosine prepared as previously described)^3 in a final volume of 5.6 µL for 1 hour at 37 °C.
This mixture was incubated at 42 °C for 1 hour before being diluted to 500 µL with PBS (10 mM Na-PO4 pH 7.4, 2.7 mM KCl, 137 mM NaCl) and 0.5 µL taken for subsequent use in qPCR. […]

Sequence: CFAGRLTIGAV
- Percentage Seq I: 0.056%
- Percentage Seq II: 0.056%
- Percentage Average: 0.056%
- Counts Seq I: 245
- Counts Seq II: 24

Sequence: IATGSKLYAKG
- Percentage Seq I: 0.033%
- Percentage Seq II: 0.046%
- Percentage Average: 0.040%
- Counts Seq I: 145
- Counts Seq II: 20

Sequence: YIVGSSDYTRG
- Percentage Seq I: 0.417%
- Percentage Seq II: 0.388%
- Percentage Average: 0.402%
- Counts Seq I: 1825
- Counts Seq II: 167

Sequence: HVLGNRSFTRG
- Percentage Seq I: 0.071%
- Percentage Seq II: 0.084%
- Percentage Average: 0.077%
- Counts Seq I: 312
- Counts Seq II: 36

Sequence: CLRLHREPGSL
- Percentage Seq I: 0.103%
- Percentage Seq II: 0.135%
- Percentage Average: 0.119%
- Counts Seq I: 449
- Counts Seq II: 58

Sequence: CFVNRLRSAESR
- Percentage Seq I: 0.141%
- Percentage Seq II: 0.144%
- Percentage Average: 0.143%
- Counts Seq I: 618
- Counts Seq II: 62

Sequence: ISRGDARYTWG
- Percentage Seq I: 0.019%
- Percentage Seq II: 0.023%
- Percentage Average: 0.021%
- Counts Seq I: 83
- Counts Seq II: 10

Sequence: CFNSRLHIGAV
- Percentage Seq I: 0.041%
- Percentage Seq II: 0.058%
- Percentage Average: 0.050%
- Counts Seq I: 181
- Counts Seq II: 25

Sequence: CLRRSFLDNAGV
- Counts (raw counts for peptide sequence), Seq I: 57
- Counts (raw counts for peptide sequence), Seq II: 7
- Percentage of the pool, averaged across the two sequencing samples: 0.015%
- Percentage of the pool, Seq I: 0.013%
- Percentage of the pool, Seq II: 0.016%

Sequence: SAWGNRLIQYY
- Counts (raw counts for peptide sequence), Seq I: 80
- Counts (raw counts for peptide sequence), Seq II: 5
- Percentage of the pool, averaged across the two sequencing samples: 0.015%
- Percentage of the pool, Seq I: 0.018%
- Percentage of the pool, Seq II: 0.012%

Sequence: CFSSRTGTTSV
- Counts (raw counts for peptide sequence), Seq I: 39
- Counts (raw counts for peptide sequence), Seq II: 10
- Percentage of the pool, averaged across the two sequencing samples: 0.016%
- Percentage of the pool, Seq I: 0.009%
- Percentage of the pool, Seq II: 0.023%

Sequence: CFAGRLTIDAAAAAAARTGGG
- Counts (raw counts for peptide sequence), Seq I: 62
- Counts (raw counts for peptide sequence), Seq II: 9
- Percentage of the pool, averaged across the two sequencing samples: 0.018%
- Percentage of the pool, Seq I: 0.014%
- Percentage of the pool, Seq II: 0.021%

Sequence: DPWCTPFSNVT
- Percentage Seq I: 0.186%
- Percentage Seq II: 0.209%
- Percentage Average: 0.198%
- Counts Seq I: 815
- Counts Seq II: 90

Sequence: CFSHRNPTDSI
- Counts (raw counts for peptide sequence), Seq I: 32
- Counts (raw counts for peptide sequence), Seq II: 6
- Percentage of the pool, averaged across the two sequencing samples: 0.011%
- Percentage of the pool, Seq I: 0.007%
- Percentage of the pool, Seq II: 0.014%

Sequence: FVTGNRDHTRE
- Counts (raw counts for peptide sequence), Seq I: 33
- Counts (raw counts for peptide sequence), Seq II: 7
- Percentage of the pool, averaged across the two sequencing samples: 0.012%
- Percentage of the pool, Seq I: 0.00754%
- Percentage of the pool, Seq II: 0.016%

Sequence: SSFREYNHLPCT
- Percentage Seq I: 0.598%
- Percentage Seq II: 0.694%
- Percentage Average: 0.646%
- Counts Seq I: 2617
- Counts Seq II: 299

Sequence: FVLGNRHTIVG
- Counts (raw counts for peptide sequence), Seq I: 57
- Counts (raw counts for peptide sequence), Seq II: 6
- Percentage of the pool, averaged across the two sequencing samples: 0.013%
- Percentage of the pool, Seq I: 0.013%
- Percentage of the pool, Seq II: 0.014%

Sequence: CFSARAVLDGGW
- Counts (raw counts for peptide sequence), Seq I: 59
- Counts (raw counts for peptide sequence), Seq II: 3
- Percentage of the pool, averaged across the two sequencing samples: 0.010%
- Percentage of the pool, Seq I: 0.013%
- Percentage of the pool, Seq II: 0.007%

Sequence: FIRGNSTSVPF
- Counts (raw counts for peptide sequence), Seq I: 46
- Counts (raw counts for peptide sequence), Seq II: 4
- Percentage of the pool, averaged across the two sequencing samples: 0.010%
- Percentage of the pool, Seq I: 0.011%
- Percentage of the pool, Seq II: 0.009%

Sequence: CFAGRPTIDAV
- Percentage Seq I: 0.018%
- Percentage Seq II: 0.028%
- Percentage Average: 0.023%
- Counts Seq I: 80
- Counts Seq II: 12

Sequence: CFAKRIVALHST
- Counts (raw counts for peptide sequence), Seq I: 54
- Counts (raw counts for peptide sequence), Seq II: 7
- Percentage of the pool, averaged across the two sequencing samples: 0.014%
- Percentage of the pool, Seq I: 0.012%
- Percentage of the pool, Seq II: 0.016%

Sequence: CFAARLSNGDS
- Percentage Seq I: 0.319%
- Percentage Seq II: 0.362%
- Percentage Average: 0.341%
- Counts Seq I: 1397
- Counts Seq II: 156

Sequence: VASGGRYWSRA
- Percentage Seq I: 0.103%
- Percentage Seq II: 0.139%
- Percentage Average: 0.121%
- Counts Seq I: 449
- Counts Seq II: 60

Sequence: CFQNRMAYGDI
- Counts (raw counts for peptide sequence), Seq I: 34
- Counts (raw counts for peptide sequence), Seq II: 7
- Percentage of the pool, averaged across the two sequencing samples: 0.012%
- Percentage of the pool, Seq I: 0.008%
- Percentage of the pool, Seq II: 0.016%

Sequence: CFSRRLTAGAV
- Percentage Seq I: 0.031%
- Percentage Seq II: 0.030%
- Percentage Average: 0.030%
- Counts Seq I: 134
- Counts Seq II: 13

Sequence: SWQNECFRLRT
- Percentage Seq I: 0.013%
- Percentage Seq II: 0.026%
- Percentage Average: 0.019%
- Counts Seq I: 58
- Counts Seq II: 11

Sequence: FVRGDQYSVLG
- Percentage Seq I: 0.056%
- Percentage Seq II: 0.081%
- Percentage Average: 0.069%
- Counts Seq I: 247
- Counts Seq II: 35

Sequence: CHGGRTFIYAWS
- Percentage Seq I: 0.025%
- Percentage Seq II: 0.026%
- Percentage Average: 0.025%
- Counts Seq I: 108
- Counts Seq II: 11

Sequence: CYAAGSASWSRG
- Counts (raw counts for peptide sequence), Seq I: 65
- Counts (raw counts for peptide sequence), Seq II: 6
- Percentage of the pool, averaged across the two sequencing samples: 0.014%
- Percentage of the pool, Seq I: 0.015%
- Percentage of the pool, Seq II: 0.014%

Sequence: CFQNRVSGSGAL
- Percentage Seq I: 0.119%
- Percentage Seq II: 0.116%
- Percentage Average: 0.118%
- Counts Seq I: 522
- Counts Seq II: 50

Sequence: HAFGSRDIAYY
- Counts (raw counts for peptide sequence), Seq I: 52
- Counts (raw counts for peptide sequence), Seq II: 5
- Percentage of the pool, averaged across the two sequencing samples: 0.012%
- Percentage of the pool, Seq I: 0.012%
- Percentage of the pool, Seq II: 0.012%

Sequence: CYGGRTSIYAWS
- Percentage Seq I: 0.032%
- Percentage Seq II: 0.023%
- Percentage Average: 0.028%
- Counts Seq I: 142
- Counts Seq II: 10

Sequence: AVHGSSFYVWG
- Percentage Seq I: 0.037%
- Percentage Seq II: 0.039%
- Percentage Average: 0.038%
- Counts Seq I: 164
- Counts Seq II: 17
